Assay results reported in paper PMC2788528.

Biological target: CEACAM3 WT-HA-CyPet, tyrosine-phosphorylated (coexpressed with v-Src) (UniProt P40198)
Assay: FRET or BRET; flow cytometric FRET in intact cotransfected 293T cells (with or without v-Src); CyPet and YPet double-positive cells gated; FRET channel excitation 405 nm, emission 525/50 nm; LSR II

Chain of UniProt P40198 (P40198 35-252): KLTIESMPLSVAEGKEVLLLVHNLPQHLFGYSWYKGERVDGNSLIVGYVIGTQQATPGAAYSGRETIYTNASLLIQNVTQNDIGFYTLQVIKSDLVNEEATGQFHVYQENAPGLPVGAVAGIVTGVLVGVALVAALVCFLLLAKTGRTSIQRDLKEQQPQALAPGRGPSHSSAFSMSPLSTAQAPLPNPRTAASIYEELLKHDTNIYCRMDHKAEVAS

**Q.** For “YPet-Hck-SH2 (SH2 domain of human Hck fused to YPet) (from UniProt P08631 144-241) (domain or fragment)”, which fold increase in the mean fluorescence intensity in the FRET channel is on record?
**A.** 4 fold
